Measured values reported in PMC8949964, “In Vitro Biological Evaluation of Aprepitant Based ^177Lu-Radioconjugates” (Pharmaceutics, 2022).
Where “and” joins values, the source holds several entries; their conditions need not be identical. Identical values can stand only once. Like-named read-outs stand apart in the source and are kept apart here. Square brackets hold non-standard residues; d marks the D form. Peptide text beside a SMILES is read from it. * marks the point of attachment. DOTA = O=C(O)CN1CCN(CC(=O)O)CCN(CC(=O)*)CCN(CC(=O)O)CC1; Met(O2) = CS(=O)(=O)CC[C@H](N)C(=O)O; 2Thi = N[C@@H](Cc1cccs1)C(=O)O

Columns and labels:
[1] = assay type: physicochemical
Protocol: A solution of purified ^177Lu-radioconjugate (around 1 MBq) or ^68Ga-radioconjugate (around 10 MBq) in 100 µL of 0.1M DPBS buffer was added into of 900 µL of 0.1 M DPBS buffer and 1000 µL of N-octanol (saturated with each other), vigorously stirred and centrifuged at 13,500 rpm for 5 min. Then, similar aliquots of both separated phases were taken for radioactivity measurement using a well-type NaI(Tl) detector. The lipophilicity values were expressed as the decimal logarithm of the distribution coefficient, D, which was calculated as a ratio of the radioconjugate radioactivity in the organic phase to that in the aqueous phase. Each experiment was performed in triplicate and the obtained values averaged. In parallel, the aqueous phases were analyzed by HPLC to confirm the stability of the studied radioconjugate during the experiment time.

human NK1 receptor = molecular target: T1, human NK1 receptor (Homo sapiens, UniProt P25103); test: Saturation binding of 177Lu-radioconjugates to hNK1R-CHO cells; settings: maximal binding concentration, 60 min at 37 °C, specific activity 5 MBq/nmol
T1 construct: expressed in transfected cells; host or cells: CHO-K1 (hNK1R-CHO), gift from Dr. Attila Keresztes and Dr. John M. Streicher
T1 sequence (P25103 whole entry): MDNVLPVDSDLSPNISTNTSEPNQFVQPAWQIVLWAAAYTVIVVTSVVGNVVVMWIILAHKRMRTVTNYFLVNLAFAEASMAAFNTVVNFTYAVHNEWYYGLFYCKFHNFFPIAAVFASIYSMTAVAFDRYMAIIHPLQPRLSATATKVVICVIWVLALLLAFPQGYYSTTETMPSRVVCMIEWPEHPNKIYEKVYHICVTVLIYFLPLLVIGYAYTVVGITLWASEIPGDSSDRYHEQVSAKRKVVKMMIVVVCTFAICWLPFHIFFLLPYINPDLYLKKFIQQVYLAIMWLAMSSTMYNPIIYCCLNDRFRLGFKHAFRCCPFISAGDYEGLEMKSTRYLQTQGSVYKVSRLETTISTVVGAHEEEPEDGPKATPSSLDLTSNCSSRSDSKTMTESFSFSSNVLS
Protocol: Cells were grown in Ham’s F12 medium (Biological Industries, Beit HaEmek, Israel) supplemented with 10% Foetal Bovine Serum (Biological Industries, Beit HaEmek, Israel) and 400 μg/mL G418 (Capricorn Scientific, Ebsdorfergrund, Germany), incubated in a humidified atmosphere with 5% CO2 at 37 °C.
In brief, 10^5 cells per well were seeded into 24-well plates and incubated 24 h before the experiment. Just before the assay, the cells were washed with 37 °C Dulbecco’s PBS and then incubated with different concentrations of an analyzed radioconjugate (0.2–50 nM at a final volume) in the medium, with or without a 1000-fold molar excess of blocker (aprepitant or [Thi^8,Met(O2)^11]SP) in relation to the highest radioconjugate concentration applied for 60 min at 37 °C. After incubation time, the assay medium was collected into plastic tubes for radioactivity measurement and the cells were washed twice with ice-cold Dulbecco’s PBS. Subsequently, the cells were lysed using 1 M NaOH and collected into plastic tubes also for radioactivity measurement.
The radioactivity of collected samples were measured using a Wizard2 2-Detector Gamma Counter (PerkinElmer, Waltham, MA, USA). […] The Kd and BMAX with standard deviations (SD), were calculated using the “One site-total and nonspecific binding” nonlinear regression curve fit (GraphPad Prism 8, GraphPad, San Diego, CA, USA).

Structure (SMILES) | logD ([1]; pH 7.4, logD 68Ga-) | logD ([1]; pH 7.4, logD 177Lu-) | BMAX ± SD (human NK1 receptor)
C[C@@H](O[C@H]1OCCN(Cc2nn(CCCCCCCCCCNC(=O)CN3CCN(CC(=O)O)CCN(CC(=O)O)CCN(CC(=O)O)CC3)c(=O)[nH]2)[C@H]1c1ccc(F)cc1)c1cc(C(F)(F)F)cc(C(F)(F)F)c1 [APT-Dec-DOTA, 2-(10-(2-(1,4,7-tris(carboxymethyl)-1,4,7,10-tetraazacyclododecan-10-yl)acetamido)decyl)-5-([(2R,3S)-2-((R)-1-[3,5-bis(trifluoromethyl)phenyl]ethoxy)-3-(4-fluorophenyl)morpholino]methyl)-1H-1,2,4-triazol-3-one] | 1.6 ± 0.04 | 1.97 ± 0.02 | –
C[C@@H](O[C@H]1OCCN(Cc2nn(CCCCCCNC(=O)CN3CCN(CC(=O)O)CCN(CC(=O)O)CCN(CC(=O)O)CC3)c(=O)[nH]2)[C@H]1c1ccc(F)cc1)c1cc(C(F)(F)F)cc(C(F)(F)F)c1 [APT-Hex-DOTA, 2-(6-(2-(1,4,7-tris(carboxymethyl)-1,4,7,10-tetraazacyclododecan-10-yl)acetamido)hexyl)-5-([(2R,3S)-2-((R)-1-[3,5-bis(trifluoromethyl)phenyl]ethoxy)-3-(4-fluorophenyl)morpholino]methyl)-1H-1,2,4-triazol-3-one] | 0.58 ± 0.03 | 1.23 ± 0.03 | –
C[C@@H](O[C@H]1OCCN(Cc2nn(CCCCCCCCNC(=O)CN3CCN(CC(=O)O)CCN(CC(=O)O)CCN(CC(=O)O)CC3)c(=O)[nH]2)[C@H]1c1ccc(F)cc1)c1cc(C(F)(F)F)cc(C(F)(F)F)c1 [APT-Oct-DOTA, 2-(8-(2-(1,4,7-tris(carboxymethyl)-1,4,7,10-tetraazacyclododecan-10-yl)acetamido)octyl)-5-([(2R,3S)-2-((R)-1-[3,5-bis(trifluoromethyl)phenyl]ethoxy)-3-(4-fluorophenyl)morpholino]methyl)-1H-1,2,4-triazol-3-one] | 1.32 ± 0.04 | 1.64 ± 0.02 | –
CC(C)C[C@H](NC(=O)CNC(=O)[C@H](Cc1cccs1)NC(=O)[C@H](Cc1ccccc1)NC(=O)[C@H](CCC(N)=O)NC(=O)[C@H](CCC(N)=O)NC(=O)[C@@H]1CCCN1C(=O)[C@H](CCCCN)NC(=O)[C@@H]1CCCN1C(=O)[C@H](CCCNC(=N)N)NC(=O)CN1CCN(CC(=O)O)CCN(CC(=O)O)CCN(CC(=O)O)CC1)C(=O)N[C@@H](CCS(C)(=O)=O)C(N)=O [[^177Lu]Lu-DOTA-[Thi^8,Met(O2)^11]SP, metal not drawn] ({DOTA}-RPKPQQF[2Thi]GL[Met(O2)]-NH2; N-terminus and C-terminus assumed) | – | – | 0.38 nM and 0.38 ± 0.02 nM
